Laboratory results as given in patent US20240294646A1.
Values belong to the substance of their own block, whether it stands above or below them.

Key:
[1] = target: FcγRIIaR (UniProt P12318); experiment: SPR (Protocol 2, Biacore 4000), antibody captured on immobilised HER2, FcγR as analyte
[2] = target: Soluble FcγRIIb extracellular domain with C-terminal 10xHis tag (UniProt P31994); experiment: SPR; fold change in affinity over WT v16463
[3] = target: Soluble FcγRIIaR extracellular domain with C-terminal 10xHis tag (UniProt P12318); experiment: SPR; fold change in affinity over WT v16463
[4] = target: Soluble FcγRIIb extracellular domain with C-terminal 10xHis tag (UniProt P31994); experiment: SPR; IIb-Fold / IIaR-Fold
[5] = target: Soluble FcγRIIb extracellular domain with C-terminal 10xHis tag (UniProt P31994); experiment: SPR, antibody captured on immobilised HER2, soluble receptor as analyte
[6] = target: Soluble FcγRIIaR extracellular domain with C-terminal 10xHis tag (UniProt P12318); experiment: as above
[7] = target: Soluble FcγRIIb extracellular domain with C-terminal 10×His tag (UniProt P31994); experiment: SPR; ratio of IIb-Fold to IIaR-Fold (FcγRIIb against FcγRIIaR)
[8] = target: Soluble FcγRIIaR extracellular domain with C-terminal 10×His tag (UniProt P12318); experiment: SPR, antibody captured on HER2 chip, receptor as analyte
[9] = target: Soluble FcγRIIb extracellular domain with C-terminal 10×His tag (UniProt P31994); experiment: as above
[10] = target: Soluble FcγRIIaR extracellular domain with C-terminal 10×His tag (UniProt P12318); experiment: SPR; KD ratio against wild-type v16463
[11] = target: Soluble FcγRIIb extracellular domain with C-terminal 10×His tag (UniProt P31994); experiment: SPR; KD ratio against wild-type v16463
[12] = target: Soluble FcγRIIaR extracellular domain with C-terminal 10×His tag (UniProt P12318); experiment: SPR (Protocol 2): full-size antibody captured on immobilised HER2, soluble receptor as analyte; fold over wild-type
[13] = target: Soluble FcγRIIb extracellular domain with C-terminal 10×His tag (UniProt P31994); experiment: as above
[14] = target: Soluble FcγRIIb extracellular domain with C-terminal 10×His tag (UniProt P31994); experiment: SPR (Protocol 2); ratio of FcγRIIb fold to FcγRIIaR fold over wild-type
[15] = target: Soluble FcγRIIb extracellular domain with C-terminal 10xHis tag (UniProt P31994); experiment: SPR Protocol 2; ratio IIb-Fold/IIaR-Fold (FcγRIIb against FcγRIIaR)
[16] = target: Soluble FcγRIIb extracellular domain with C-terminal 10xHis tag (UniProt P31994); experiment: SPR Protocol 2; IIb selectivity relative to control v27294
[17] = target: Soluble FcγRIIb extracellular domain with C-terminal 10xHis tag (UniProt P31994); experiment: SPR Protocol 2; IIb-Fold relative to control v27294
[18] = target: Soluble FcγRIIb extracellular domain with C-terminal 10xHis tag (UniProt P31994); experiment: SPR Protocol 2, OAA captured on HER2 chip, receptor as analyte; KD(WT v16463)/KD(variant)
[19] = target: Soluble FcγRIIaR extracellular domain with C-terminal 10xHis tag (UniProt P12318); experiment: as above
[20] = target: Soluble FcγRIIb extracellular domain with C-terminal 10xHis tag (UniProt P31994); experiment: SPR; ratio of the fold for FcγRIIb to the fold for FcγRIIaR
[21] = target: Soluble FcγRIIb extracellular domain with C-terminal 10xHis tag (UniProt P31994); experiment: SPR, antibody captured on HER2, receptor as analyte
[22] = target: Soluble FcγRIIaR extracellular domain with C-terminal 10xHis tag (UniProt P12318); experiment: as above
[23] = target: Biotinylated FcγRIIb extracellular domain-Fc fusion (human IgG1 Fc L234A_L235A_D265S) (human) (UniProt P31994); experiment: competition electrochemiluminescence (MSD), antibody on HER2-coated plate, biotinylated FcγRIIb-Fc; competitor FcγRIIaR-Fc
[24] = target: FcγRIIIaV (UniProt P08637); experiment: SPR (ProteOn XPR36), antibody captured on immobilized HER2, FcγR as analyte, equilibrium fit
[25] = target: FcγRI (UniProt P12314); experiment: as above
[26] = target: FcγRIIaR (UniProt P12318); experiment: as above
[27] = target: FcγRIIb (UniProt P31994); experiment: as above
[28] = target: FcγRIIaH (UniProt P12318); experiment: as above
[29] = target: Recombinant human C1q (C1740, Sigma Aldrich) (human) (UniProt P02745); experiment: ELISA; antibody coated on plate, human C1q added; signal as % of wild-type
[30] = target: FcγRIIb (UniProt P31994); experiment: SPR; ratio of IIb-fold to IIaR-fold, FcγRIIaR as comparison receptor
[31] = target: FcγRIIb (UniProt P31994); experiment: SPR; trastuzumab FSA variant against soluble FcγRIIb; KD ratio to wild-type FSA v21653
[32] = target: FcγRIIaR (UniProt P12318); experiment: SPR; trastuzumab FSA variant against soluble FcγRIIaR; KD ratio to wild-type FSA v21653
[33] = target: Biotinylated FcγRIIb extracellular domain-Fc fusion (human IgG1 Fc with L234A_L235A_D265S) (human) (UniProt P31994); experiment: competition electrochemiluminescence, antibody on HER2-coated plate, biotinylated FcγRIIb-Fc; competitor FcγRIIaR-Fc at 10x
[34] = target: Soluble FcγRIIb extracellular domain with C-terminal 10xHis tag (UniProt P31994); experiment: SPR (Biacore 4000), antibody captured on immobilised HER2, receptor as analyte

Kd [1]: 360 nM
Substance: Variant 16463, wild-type one-armed antibody (Scaffold 2: one trastuzumab Fab and heterodimeric IgG1 Fc)

IIb-Fold [2]: 1 fold | IIaR-fold [3]: 1 fold | IIb Selectivity [4]: 1 | Kd [5]: 1400 nM | Kd [6]: 310 nM
Substance: Variant 16463, wild-type one-armed trastuzumab antibody (Scaffold 2)

IIb Selectivity (IIb-Fold/IIaR-Fold) [7]: 1 fold | Kd [8]: 310 nM | Kd [9]: 1400 nM | IIaR-fold [10]: 1 fold | IIb-Fold [11]: 1 fold
Substance: Variant 16463, wild-type one-armed trastuzumab antibody with heterodimeric IgG1 Fc (Scaffold 2)

IIaR-fold (fold change in affinity over wild-type) [12]: 1.6 fold | IIb-fold (fold change in affinity over wild-type) [13]: 23.9 fold | IIb/IIaR Selectivity (IIb-Fold/IIaR-Fold) [14]: 15.2
Substance: Variant 22127, full-size antibody (FSA) format of v19540 (trastuzumab, heterodimeric IgG1 Fc; A: L234D_G236N_S267A / B: G236D_S239D_V266L_S267A_H268D)

IIaR-fold (fold change in affinity over wild-type) [12]: 3.3 fold | IIb-fold (fold change in affinity over wild-type) [13]: 37.4 fold | IIb/IIaR Selectivity (IIb-Fold/IIaR-Fold) [14]: 11.3
Substance: Variant 22128, full-size antibody (FSA) format of v19585 (trastuzumab, heterodimeric IgG1 Fc; A: L234F_G236N_H268Q_K274Q_A327G_A330K_P331S / B: L234F_G236D_S239D_V266L_S267A_H268D_K274Q_A327G_A330S_P331S)

IIb Selectivity (IIb-Fold/IIaR-Fold) [15]: 14.9 fold | IIb Selectivity Improvement wrt Control [16]: 1.1 fold | IIb-Fold wrt Control [17]: 1 fold | IIb-fold (fold change in affinity over wild-type) [18]: 89.7 fold | IIaR-fold (fold change in affinity over wild-type) [19]: 6 fold
Substance: Variant 26747 (A_E272V_strat2), one-armed trastuzumab antibody with heterodimeric IgG1 Fc

IIb Selectivity (IIb-Fold/IIaR-Fold) [15]: 11.2 fold | IIb Selectivity Improvement wrt Control [16]: 0.8 fold | IIb-Fold wrt Control [17]: 0.6 fold | IIb-fold (fold change in affinity over wild-type) [18]: 60.1 fold | IIaR-fold (fold change in affinity over wild-type) [19]: 5.4 fold
Substance: Variant 26751 (A_E272W_strat2), one-armed trastuzumab antibody with heterodimeric IgG1 Fc

IIb Selectivity (IIb-Fold/IIaR-Fold) [15]: 17.5 fold | IIb Selectivity Improvement wrt Control [16]: 1.3 fold | IIb-Fold wrt Control [17]: 0.9 fold | IIb-fold (fold change in affinity over wild-type) [18]: 79.8 fold | IIaR-fold (fold change in affinity over wild-type) [19]: 4.6 fold
Substance: Variant 26752 (A_E272Y_strat2), one-armed trastuzumab antibody with heterodimeric IgG1 Fc

IIb Selectivity (IIb-Fold/IIaR-Fold) [20]: 11.8 | IIb Selectivity Fold wrt Control (v27293) [20]: 1 fold | IIb-Fold (affinity fold over WT v16463) [21]: 415 fold | IIb-Fold wrt Control (v27293) [21]: 1 fold | Kd [21]: 3.5 nM | IIaR-Fold (affinity fold over WT v16463) [22]: 35.2 fold | IIaR-Fold wrt Control (v27293) [22]: 1 fold | Kd [22]: 8.8 nM | ELISA (% of non-competed FcγRIIb signal in presence of 10x FcγRIIa) [23]: 70.8%
Substance: Variant 27293 (strat1_control; Launching Module 1: A_G236N_G237A B_G236D_G237F_S239D_S267V_H268D_Template_1) (antibody)

Kd [24]: 1190 nM | Kd [25]: 0.067 nM | Kd [26]: 1520 nM | Kd [27]: 4200 nM | Kd [28]: 1150 nM
Substance: Variant 31509 (trastuzumab full-size antibody, Azymetric heterodimeric IgG1 Fc, no CH2 mutations; parental scaffold)

Kd [24]: 1890 nM | Kd [25]: 0.098 nM | Kd [26]: 2590 nM | Kd [27]: 7740 nM
Substance: Variant 31521 (trastuzumab full-size antibody, knobs-into-holes heterodimeric IgG1 Fc, no CH2 mutations; parental scaffold)

Kd [24]: 1600 nM | Kd [25]: 0.071 nM | Kd [26]: 2090 nM | Kd [27]: 6340 nM | Kd [28]: 1530 nM
Substance: Variant 31522 (trastuzumab full-size antibody, electrostatic steering heterodimeric IgG1 Fc, no CH2 mutations; parental scaffold)

C1q Binding (% WT) [29]: 2 % WT | IIb Selectivity (IIb-Fold/IIaR-Fold) [30]: 78 fold | IIb-fold (fold change in affinity over wild-type) [31]: 451 fold | IIaR-fold (fold change in affinity over wild-type) [32]: 6 fold
Substance: Variant 32292, trastuzumab full-size antibody (chain A L235D_strat2; chain B D329*I_I332L-strat1)

C1q Binding (% WT) [29]: 2 % WT | IIb Selectivity (IIb-Fold/IIaR-Fold) [30]: 58 fold | IIb-fold (fold change in affinity over wild-type) [31]: 323 fold | IIaR-fold (fold change in affinity over wild-type) [32]: 6 fold
Substance: Variant 32293, trastuzumab full-size antibody (chain A S267A_strat2; chain B D329*I_I332L-strat1)

C1q Binding (% WT) [29]: -1 % WT | IIb Selectivity (IIb-Fold/IIaR-Fold) [30]: 82 fold | IIb-fold (fold change in affinity over wild-type) [31]: 103 fold | IIaR-fold (fold change in affinity over wild-type) [32]: 1 fold
Substance: Variant 32295, trastuzumab full-size antibody (chain A P329I_strat2; chain B D329*I_I332L-strat1)

IIb Selectivity (IIb-Fold/IIaR-Fold) [20]: 80.5 | IIb-Fold (affinity fold over WT v16463) [21]: 112 fold | Kd [21]: 13 nM | IIaR-Fold (affinity fold over WT v16463) [22]: 1.4 fold | Kd [22]: 220 nM | ELISA (% of non-competed FcγRIIb signal in presence of 10x FcγRIIa) [23]: 100%
Substance: v12 (IIb-specific comparator, symmetrical E233D_G237D_P238D_H268D_P271G_A330R) (antibody)

IIb-Fold [2]: 112 fold | IIaR-fold [3]: 1.4 fold | ELISA (% of non-competed FcγRIIb signal in presence of 10x FcγRIIa) [33]: 100% | IIb Selectivity [4]: 80.5 | Kd [5]: 13 nM | Kd [6]: 220 nM
Substance: v12, IIb-specific comparator with symmetrical E233D_G237D_P238D_H268D_P271G_A330R (Mimoto et al. 2013) (antibody)

Kd [34]: 150 nM
Substance: v27362, strat3_control (A_G236N_G237A B_G236D_G237F_S239D_S267V_H268D) (antibody)
